Data reported in publication doi:10.1101/2021.11.05.467508v1.

B1: ΔC1 (Oryza sativa Indica Group) (protein)
chain: MSLGYAEKLSYREDVGNVGMPEIFDSPELLHKKIEELAVMVRESKHLVVFTGAGISTSSGIPDFRGPKGVWTLQRSGKGVPGASLPFHRAVPTLTHMALVELEKTGRLKFVISQNVDSLHLRSGLPREKLAELHGNSFKEICPSCKKEYLRDFEIETIGLKDTPRRCSDKNCGARLKDTVLDWEDALPPEEMDAAKEQCQTADLVLCLGTSLQITPACNMPLLSLKNGGRVAIVNLQATPKDKKASLVIHGLVDK
B2: ΔN1 (Oryza sativa Indica Group) (protein)
chain: KHLVVFTGAGISTSSGIPDFRGPKGVWTLQRSGKGVPGASLPFHRAVPTLTHMALVELEKTGRLKFVISQNVDSLHLRSGLPREKLAELHGNSFKEICPSCKKEYLRDFEIETIGLKDTPRRCSDKNCGARLKDTVLDWEDALPPEEMDAAKEQCQTADLVLCLGTSLQITPACNMPLLSLKNGGRVAIVNLQATPKDKKASLVIHGLVDKVIAGVMYMMNLRIPPYIRTDFVQISLRNSVKKKCVRWTLRVTSIHGLRAPLPFLRSVEVSFPERPDMKPVVLKEQPFSLQRETSMNRPFVMLLTFNFSDGCGCSSSSIEWPVDFLKQKDSFVRDRSLVLQELQHAAEHRSRAGQHAILEREGVPRAETSIHALVTNIVRYDTEDSKAAVPMATWMNSNGSLSKRHMDAIGCNPASSKKQKLVATRHRRKGLNPATQKV
B3: OsSRT1_cc (CC) (Oryza sativa Indica Group) (protein)
chain: KHLVVFTGAGISTSSGIPDFRGPKGVWTLQRSGKGVPGASLPFHRAVPTLTHMALVELEKTGRLKFVISQNVDSLHLRSGLPREKLAELHGNSFKEICPSCKKEYLRDFEIETIGLKDTPRRCSDKNCGARLKDTVLDWEDALPPEEMDAAKEQCQTADLVLCLGTSLQITPACNMPLLSLKNGGRVAIVNLQATPKDKKASLVIHGLVDK

substrate: NC(=O)c1ccc[n+]([C@@H]2O[C@H](COP(=O)(O)OP(=O)(O)OC[C@H]3O[C@@H](n4cnc5c(N)ncnc54)[C@H](O)[C@@H]3O)[C@@H](O)[C@H]2O)c1; experiment: dot blot saturation kinetics, Michaelis-Menten fit; format: biochemical, Oryza sativa; details: H3K9Ac of histone H3 (constant), 0-600 μM NAD+, pH 7.5, 37 °C

**Q.** B1 was tested. Which Km did it give?
**A.** The Km was 299 ± 43 µM.

**Q.** And the kcat?
**A.** The kcat was 0.02 ± 0.0014 s⁻¹.

**Q.** What does the source list for B2?
**A.** Km: 175 ± 27 µM; kcat: 0.0617 ± 0.00367 s⁻¹

**Q.** For B3, which Km is on record?
**A.** The Km was 256 ± 21 µM.

**Q.** And the kcat?
**A.** Its kcat is 0.03432 ± 0.00127 s⁻¹.
